Results from patent publication US10487114.

Tested on: T1, pT231-Pro tau peptide KVAVVR-(pT231)-(Pro)-PKSPS
T1 sequence: KVAVVRTPPKSPS

PP2A
dephosphorylation of pT231-tau peptide, read with the conformation-specific antibodies: Trans, but not cis, pT231-tau peptide was readily dephosphorylated by PP2A in a time-dependent manner
